Experimental findings from publication PMC3448645, “Functional Studies of ssDNA Binding Ability of MarR Family Protein TcaR from Staphylococcus epidermidis” are described below.

One data set has as its target TcaR quadruple mutant (Staphylococcus epidermidis, UniProt Q5HLN6 1-151, R71A;K73A;R93A;K95A). Description: EMSA; EMSA: 20 mM Tris-HCl pH 8.0, 150 mM KCl, 0.1 mM MgCl2, 0.05 mM EDTA, 12.5% glycerol, 0.1 mM DTT, 1 mg/ml BSA, room temperature (30 C for viral ssDNA); SPR: 50 mM Tris, 150 mM NaCl, pH 7.5, 25 C. Conditions: protein: recombinant, chain copies: 2.
Data set [1] addresses T1, TcaR (Staphylococcus epidermidis, UniProt Q5HLN6 1-151). Description: EMSA; weaker than the single strands; EMSA: 20 mM Tris-HCl pH 8.0, 150 mM KCl, 0.1 mM MgCl2, 0.05 mM EDTA, 12.5% glycerol, 0.1 mM DTT, 1 mg/ml BSA, room temperature (30 C for viral ssDNA); SPR: 50 mM Tris, 150 mM NaCl, pH 7.5, 25 C. Conditions: protein: recombinant; chain copies: 2.
Data set [2] deals with T1, TcaR. Description: EMSA; EMSA: 20 mM Tris-HCl pH 8.0, 150 mM KCl, 0.1 mM MgCl2, 0.05 mM EDTA, 12.5% glycerol, 0.1 mM DTT, 1 mg/ml BSA, room temperature (30 C for viral ssDNA); SPR: 50 mM Tris, 150 mM NaCl, pH 7.5, 25 C. Conditions: protein: recombinant, chain copies: 2.
In data set [3] the target is T1, TcaR. Description: EMSA; no significant interaction; 1 uM DNA; EMSA: 20 mM Tris-HCl pH 8.0, 150 mM KCl, 0.1 mM MgCl2, 0.05 mM EDTA, 12.5% glycerol, 0.1 mM DTT, 1 mg/ml BSA, room temperature (30 C for viral ssDNA); SPR: 50 mM Tris, 150 mM NaCl, pH 7.5, 25 C. Conditions: protein: recombinant, chain copies: 2. In general terms: A gel shift assay detects complexes by their altered migration in electrophoresis.

Data set [4] deals with T1, TcaR. Description: SPR; EMSA: 20 mM Tris-HCl pH 8.0, 150 mM KCl, 0.1 mM MgCl2, 0.05 mM EDTA, 12.5% glycerol, 0.1 mM DTT, 1 mg/ml BSA, room temperature (30 C for viral ssDNA); SPR: 50 mM Tris, 150 mM NaCl, pH 7.5, 25 C. Conditions: protein: recombinant; chain copies: 2; label: 5' biotin (SPR). On the technique in general: In SPR one partner is held on a chip, and binding of the other changes the refractive index at the surface.

Data set [5] has as its target T1, TcaR. Description: EMSA; similar to GC33; small complex; EMSA: 20 mM Tris-HCl pH 8.0, 150 mM KCl, 0.1 mM MgCl2, 0.05 mM EDTA, 12.5% glycerol, 0.1 mM DTT, 1 mg/ml BSA, room temperature (30 C for viral ssDNA); SPR: 50 mM Tris, 150 mM NaCl, pH 7.5, 25 C. Conditions: protein: recombinant; chain copies: 2.
Data set [6] addresses T1, TcaR. Briefly: SPR; shown as '-' in table; EMSA: 20 mM Tris-HCl pH 8.0, 150 mM KCl, 0.1 mM MgCl2, 0.05 mM EDTA, 12.5% glycerol, 0.1 mM DTT, 1 mg/ml BSA, room temperature (30 C for viral ssDNA); SPR: 50 mM Tris, 150 mM NaCl, pH 7.5, 25 C. Conditions: protein: recombinant; chain copies: 2.
For data set [7], the target named is T1, TcaR. Description: EMSA; similar to GC33; small and large complexes; EMSA: 20 mM Tris-HCl pH 8.0, 150 mM KCl, 0.1 mM MgCl2, 0.05 mM EDTA, 12.5% glycerol, 0.1 mM DTT, 1 mg/ml BSA, room temperature (30 C for viral ssDNA); SPR: 50 mM Tris, 150 mM NaCl, pH 7.5, 25 C. Conditions: protein: recombinant; chain copies: 2.

B1: IcaR DNA1 (dsDNA)
DNA 1: TATTGCAAATTGAAATACTTTCGATTAGCATAT
DNA 2: ATATGCTAATCGAAAGTATTTCAATTTGCAATA
With B1, the binding result in the data set with TcaR quadruple mutant is listed as “no binding”; in the data set with TcaR [1], “binds”.

B2: IcaR DNA1A (ssDNA)
DNA: B1 DNA 2
Turning to B2, the binding result with TcaR [2] is listed as “binds”.

B3: IcaR DNA1S (ssDNA)
DNA: B1 DNA 1
On to B3, for which, in the data set with TcaR [2], the binding result is reported as “binds”.

B4: AT17 (ssDNA)
DNA: GATTATTTATTTTCAAG
For the molecule B4, the binding result with TcaR [3] is on record as “no binding”.

B5: GC17 (ssDNA)
DNA: GAGCGTTGGCGTCGTGC
Consider B5, for which the binding result in the data set with TcaR [3] (label: 5' biotin (SPR only)) is reported as “no binding”.

B6: AT33 (ssDNA)
DNA: GATTATTTATTTTCAAATTATTTATTTTCAAGG
On to B6, for which, in the data set with TcaR [2] (label: 5' biotin (SPR only)), the binding result is “binds”.

B7: GC8 (ssDNA)
DNA: GTTGGCGT
Turning to B7, the binding result with TcaR [4] is “no binding”.

B8: GC33 (ssDNA)
DNA: GAGCGTTGGCGTCGTGAGCGTTGGCGTCGTGCG
For the molecule B8, the binding result with TcaR [2] (label: 5' biotin (SPR only)) is recorded as “binds”; in the data set with TcaR quadruple mutant (label: 5' biotin (SPR only)), “no binding”.

B9: GC25 (ssDNA)
DNA: GTTGGCGTCGTGAGCGTTGGCGTCG
With B9, the binding result with TcaR [5] was “binds”.

B10: Control dsDNA (dsDNA)
DNA 1: CCCCCGGGTTCGATGGGCTCAAGGCGGGCATGAAGTACCCCGTACTTCATGCCCGCCTTGAGCCCATCGAACCC
DNA 2: GGGTTCGATGGGCTCAAGGCGGGCATGAAGTACGGGGTACTTCATGCCCGCCTTGAGCCCATCGAACCCGGGGG
Regarding B10, in the data set with TcaR [6], the binding result was “no binding”.

B11: GC29 (ssDNA)
DNA: GCGTTGGCGTCGTGAGCGTTGGCGTCGTG
With B11, in the data set with TcaR [7], the binding result is listed as “binds”.
